Laboratory results taken from US20050065324A1.

Columns and labels:
[1] = molecular target: recombinant human TSP fragment of ~140 kDa engineered to lack the N-terminal heparin-binding domain (human); test: sandwich ELISA, Ab-4 capture, Ab-8 detection; analyte at 100.0 ng/mL
[2] = molecular target: human platelet thrombospondin (thrombospondin-1) (human) (UniProt P07996); test: as above
[3] = molecular target: recombinant human TSP fragment of ~140 kDa engineered to lack the N-terminal heparin-binding domain (human); test: sandwich ELISA, Ab-4 capture, Ab-8 detection; analyte at 12.50 ng/mL
[4] = molecular target: human platelet thrombospondin (thrombospondin-1) (human) (UniProt P07996); test: as above
[5] = molecular target: recombinant human TSP fragment of ~140 kDa engineered to lack the N-terminal heparin-binding domain (human); test: sandwich ELISA, Ab-4 capture, Ab-8 detection; analyte at 6.250 ng/mL
[6] = molecular target: human platelet thrombospondin (thrombospondin-1) (human) (UniProt P07996); test: as above
[7] = molecular target: recombinant human TSP fragment of ~140 kDa engineered to lack the N-terminal heparin-binding domain (human); test: sandwich ELISA, Ab-4 capture, Ab-8 detection; analyte at 50.00 ng/mL
[8] = molecular target: human platelet thrombospondin (thrombospondin-1) (human) (UniProt P07996); test: as above
[9] = molecular target: recombinant human TSP fragment of ~140 kDa engineered to lack the N-terminal heparin-binding domain (human); test: sandwich ELISA, Ab-4 capture, Ab-8 detection; analyte at 3.125 ng/mL
[10] = molecular target: human platelet thrombospondin (thrombospondin-1) (human) (UniProt P07996); test: as above
[11] = molecular target: recombinant human TSP fragment of ~140 kDa engineered to lack the N-terminal heparin-binding domain (human); test: sandwich ELISA, Ab-4 capture, Ab-8 detection; analyte at 200.0 ng/mL
[12] = molecular target: human platelet thrombospondin (thrombospondin-1) (human) (UniProt P07996); test: as above
[13] = molecular target: recombinant human TSP fragment of ~140 kDa engineered to lack the N-terminal heparin-binding domain (human); test: sandwich ELISA, Ab-4 capture, Ab-8 detection; analyte at 25.00 ng/mL
[14] = molecular target: human platelet thrombospondin (thrombospondin-1) (human) (UniProt P07996); test: as above

UniProt P07996, sequence (P07996 19-1170 T523A): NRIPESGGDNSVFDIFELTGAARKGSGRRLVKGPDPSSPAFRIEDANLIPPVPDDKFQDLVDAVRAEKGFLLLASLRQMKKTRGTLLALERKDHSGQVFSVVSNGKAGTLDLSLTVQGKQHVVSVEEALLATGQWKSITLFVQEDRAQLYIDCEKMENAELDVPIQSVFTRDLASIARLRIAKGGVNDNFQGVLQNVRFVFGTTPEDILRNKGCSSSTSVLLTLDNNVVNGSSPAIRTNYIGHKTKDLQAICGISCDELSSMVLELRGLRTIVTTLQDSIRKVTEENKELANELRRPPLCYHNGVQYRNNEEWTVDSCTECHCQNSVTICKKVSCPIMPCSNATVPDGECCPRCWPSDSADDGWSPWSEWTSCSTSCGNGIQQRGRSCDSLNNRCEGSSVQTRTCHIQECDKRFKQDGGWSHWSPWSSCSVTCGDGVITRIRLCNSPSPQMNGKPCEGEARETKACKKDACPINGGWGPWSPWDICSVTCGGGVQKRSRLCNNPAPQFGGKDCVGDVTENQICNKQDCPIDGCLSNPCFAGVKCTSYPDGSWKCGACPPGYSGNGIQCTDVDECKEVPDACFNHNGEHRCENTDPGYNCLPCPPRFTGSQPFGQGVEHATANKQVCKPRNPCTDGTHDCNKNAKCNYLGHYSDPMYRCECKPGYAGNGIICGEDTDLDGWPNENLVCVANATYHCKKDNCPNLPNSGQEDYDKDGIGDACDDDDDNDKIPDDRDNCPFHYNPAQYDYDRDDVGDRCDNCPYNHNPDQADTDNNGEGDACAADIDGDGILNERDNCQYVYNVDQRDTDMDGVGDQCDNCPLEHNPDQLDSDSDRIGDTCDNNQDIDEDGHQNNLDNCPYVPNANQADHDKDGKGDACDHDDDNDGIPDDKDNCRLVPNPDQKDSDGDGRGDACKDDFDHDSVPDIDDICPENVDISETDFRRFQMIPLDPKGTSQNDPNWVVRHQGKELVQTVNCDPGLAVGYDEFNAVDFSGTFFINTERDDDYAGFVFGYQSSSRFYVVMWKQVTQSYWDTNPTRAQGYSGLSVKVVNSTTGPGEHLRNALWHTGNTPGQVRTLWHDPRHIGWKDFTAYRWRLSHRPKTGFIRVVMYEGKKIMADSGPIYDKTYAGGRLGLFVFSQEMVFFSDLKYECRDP

ELISA OD-450 [1]: 2.2 OD-450 | ELISA OD-450 [2]: 2.09 OD-450 | ELISA OD-450 [3]: 0.662 OD-450 | ELISA OD-450 [4]: 0.713 OD-450 | ELISA OD-450 [5]: 0.4 OD-450 | ELISA OD-450 [6]: 0.514 OD-450 | ELISA OD-450 [7]: 1.8 OD-450 | ELISA OD-450 [8]: 1.57 OD-450 | ELISA OD-450 [9]: 0.279 OD-450 | ELISA OD-450 [10]: 0.345 OD-450 | ELISA OD-450 [11]: 2.56 OD-450 | ELISA OD-450 [12]: 2.5 OD-450 | ELISA OD-450 [13]: 1.17 OD-450 | ELISA OD-450 [14]: 1.08 OD-450
Substance: TSP Ab-4 (Clone A6.1) (antibody)
